Data: patent US20240124586A1 (WUXI BIOLOGICS IRELAND, published 2024)
Changes are numbered by the printed parent chain.

T1: human CD19 on CD19+ B cell lines (Ramos, Raji) (human, UniProt P15391 20-556)
T1 sequence (looked up): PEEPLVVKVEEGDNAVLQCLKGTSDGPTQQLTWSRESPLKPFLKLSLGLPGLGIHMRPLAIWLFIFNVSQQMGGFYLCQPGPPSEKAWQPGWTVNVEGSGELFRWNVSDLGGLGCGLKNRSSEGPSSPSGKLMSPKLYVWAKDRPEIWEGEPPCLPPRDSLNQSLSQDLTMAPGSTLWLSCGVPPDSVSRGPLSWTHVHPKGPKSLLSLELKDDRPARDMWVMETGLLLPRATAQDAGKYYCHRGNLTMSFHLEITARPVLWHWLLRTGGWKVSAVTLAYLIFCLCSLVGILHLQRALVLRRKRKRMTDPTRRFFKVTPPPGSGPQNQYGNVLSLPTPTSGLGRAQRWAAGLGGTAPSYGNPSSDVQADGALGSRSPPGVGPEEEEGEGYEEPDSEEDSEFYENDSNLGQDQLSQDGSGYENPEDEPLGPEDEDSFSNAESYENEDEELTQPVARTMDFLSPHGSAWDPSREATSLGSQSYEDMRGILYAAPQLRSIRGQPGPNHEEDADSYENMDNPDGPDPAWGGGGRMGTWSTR

B1: E17-Design_2-QQQQ (IgG1), bispecific anti-CD3 x CD19 (bispecific antibody)
heavy 1: not shown
light 1: DIVMTQSPDSLAVSLGERATINCKSSQSLLNSRTRKNYLAWYQQKPGQPPKLLIYWASTRQSGVPDRFSGSGSGTDFTLTISSLQAEDVAVYYCTQSHTLRTFGGGTKVEIKPDIQNPDPAVYQLRDSKSSDKSVCLFTDFDSQTQVSQSKDSDVYITDKCVLDMRSMDFKSNSAVAWSQKSDFACANAFQNSIIPEDTFFPSPESS
heavy 2: QMQLVQSGPEVKKPGTSVKVSCKASGYAFTSYNMYWVRQARGQRLEWIGYIDPYNGDTTYNQKFKGRVTITRDMSTSTAYMELSSLRSEDTAVYYCLTTAYAMDYWGQGTLVTVSSASTKGPSVFPLAPSSKSTSGGTAALGCLVKDYFPEPVTVSWNSGALTSGVHTFPAVLQSSGLYSLSSVVTVPSSSLGTQTYICNVNHKPSNTKVDKRVEPKSCDKTHTCPPCPAPEAAGGPSVFLFPPKPKDTLMISRTPEVTCVVVDVSHEDPEVKFNWYVDGVEVHNAKTKPREEQYNSTYRVVSVLTVLHQDWLNGKEYKCKVSNKALPAPIEKTISKAKGQPREPQVCTLPPSREEMTKNQVSLSCAVKGFYPSDIAVEWESNGQPENNYKTTPPVLDSDGSFFLVSKLTVDKSRWQQGNVFSCSVMHEALHNHYTQKSLSLSPGK
light 2: DIQLTQSPSFLSASVGDRVTITCSASSTVNYMHWYQQKPGKAPKLLIYSTSNLASGVPSRFSGSGSGTEFTLTISSLQPEDFATYYCHQWSSYPYTFGQGTKLEIKRTVAAPSVFIFPPSDEQLKSGTASVVCLLNNFYPREAKVQWKVDNALQSGNSQESVTEQDSKDSTYSLSSTLTLSKADYEKHKVYACEVTHQGLSSPVTKSFNRGEC
B2: U6T1.G19.IgG4, bispecific anti-PD-1 x CTLA-4 (bispecific antibody)
heavy: not shown
light 1: SYELTQPLSVSVALGQTARITCGGDNIGNKDVHWYQQKPGQAPVLVIYRDSNRPSGIPEGFSGSNSGNTATLTISRAQAGDEADYYCQVWDSIWVFGGGTKLTVLGQPKAAPSVTLFPPSSEELQANKATLVCLISDFYPGAVTVAWKADSSPVKAGVETTTPSKQSNNKYAASSYLSLTPEQWKSHKSYSCQVTHEGSTVEKTVAPTECS
light 2: not shown
notes: Symmetric tetravalent format G19; also called U6T1 in G19 format
B3: T1U6.G19.IgG4, bispecific anti-CTLA-4 x PD-1 (bispecific antibody)
heavy: not shown
light 1: not shown
light 2: SYELTQPLSVSVALGQTARITCGGDNIGNKDVHWYQQKPGQAPVLVIYRDSNRPSGIPEGFSGSNSGNTATLTISRAQAGDEADYYCQVWDSIWVFGGGTKLTVLPDIQNPDPAVYQLRDSKSSDKSVCLFTDFDSQTQVSQSKDSDVYITDKCVLDMRSMDFKSNSAVAWSQKSDFACANAFQNSIIPEDTFFPSPESS
notes: Symmetric tetravalent format G19; T1 (ipilimumab) on top, U6 (W3055_1.153.7) as TCR-chimeric Fab at the C-terminus
B4: T3-Design_1 (IgG1), normal orientation (antibody)
heavy: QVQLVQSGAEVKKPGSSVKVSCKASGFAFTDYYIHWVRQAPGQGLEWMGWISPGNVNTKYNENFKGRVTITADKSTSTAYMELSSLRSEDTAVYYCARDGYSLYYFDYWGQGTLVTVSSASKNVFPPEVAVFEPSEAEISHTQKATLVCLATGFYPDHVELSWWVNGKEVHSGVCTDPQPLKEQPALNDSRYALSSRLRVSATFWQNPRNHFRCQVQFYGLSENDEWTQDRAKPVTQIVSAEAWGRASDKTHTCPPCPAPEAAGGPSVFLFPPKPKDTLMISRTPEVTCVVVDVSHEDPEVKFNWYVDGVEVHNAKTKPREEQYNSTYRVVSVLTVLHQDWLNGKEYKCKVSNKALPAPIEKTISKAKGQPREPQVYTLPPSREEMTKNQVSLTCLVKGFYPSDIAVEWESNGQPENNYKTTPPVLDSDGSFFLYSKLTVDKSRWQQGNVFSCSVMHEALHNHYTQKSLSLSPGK
light: B1 light 1 with P113R, D114T, I115V, Q116A, N117A, Q146N, Q180N, Q191N
notes: Monospecific IgG-like chimera of T3 variable domains with TCR CBeta/CAlpha; tested as Expi293 supernatant
B5: T3-Design_5 (IgG1), normal orientation (antibody)
heavy: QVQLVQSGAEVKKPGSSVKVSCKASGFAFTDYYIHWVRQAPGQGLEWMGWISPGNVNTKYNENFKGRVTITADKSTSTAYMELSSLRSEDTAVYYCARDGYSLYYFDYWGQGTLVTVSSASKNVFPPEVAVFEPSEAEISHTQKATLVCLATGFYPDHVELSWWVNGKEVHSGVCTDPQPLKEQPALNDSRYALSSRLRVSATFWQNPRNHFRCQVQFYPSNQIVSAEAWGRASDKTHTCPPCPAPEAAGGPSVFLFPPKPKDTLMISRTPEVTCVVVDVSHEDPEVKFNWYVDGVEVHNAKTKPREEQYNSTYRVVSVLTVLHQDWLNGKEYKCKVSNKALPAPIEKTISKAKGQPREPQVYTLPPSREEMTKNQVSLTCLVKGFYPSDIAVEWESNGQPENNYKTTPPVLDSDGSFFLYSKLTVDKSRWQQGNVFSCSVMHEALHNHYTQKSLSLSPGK
light: B1 light 1 with P113R, D114T, I115V, Q116A, N117A, Q146N, Q180N, Q191N
notes: Monospecific IgG-like TCR chimera; tested as supernatant
B6: T3-Design_6a (IgG1), normal orientation (antibody)
heavy: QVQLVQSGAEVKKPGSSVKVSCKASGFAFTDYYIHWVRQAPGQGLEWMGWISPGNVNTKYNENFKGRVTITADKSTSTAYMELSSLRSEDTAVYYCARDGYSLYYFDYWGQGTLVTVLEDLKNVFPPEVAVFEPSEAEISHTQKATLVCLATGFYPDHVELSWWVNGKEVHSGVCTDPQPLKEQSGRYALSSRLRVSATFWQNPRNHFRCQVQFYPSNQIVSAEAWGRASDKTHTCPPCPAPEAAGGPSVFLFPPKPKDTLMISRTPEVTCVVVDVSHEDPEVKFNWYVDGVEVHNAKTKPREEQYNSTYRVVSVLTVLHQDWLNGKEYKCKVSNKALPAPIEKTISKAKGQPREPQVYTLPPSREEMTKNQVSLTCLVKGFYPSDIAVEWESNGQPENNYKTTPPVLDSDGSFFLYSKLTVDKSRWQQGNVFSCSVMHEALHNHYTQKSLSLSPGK
light: B1 light 1 with Q146N, Q180N, Q191N
notes: as for B5
B7: T3-Design_2 (IgG1), normal orientation (antibody)
heavy: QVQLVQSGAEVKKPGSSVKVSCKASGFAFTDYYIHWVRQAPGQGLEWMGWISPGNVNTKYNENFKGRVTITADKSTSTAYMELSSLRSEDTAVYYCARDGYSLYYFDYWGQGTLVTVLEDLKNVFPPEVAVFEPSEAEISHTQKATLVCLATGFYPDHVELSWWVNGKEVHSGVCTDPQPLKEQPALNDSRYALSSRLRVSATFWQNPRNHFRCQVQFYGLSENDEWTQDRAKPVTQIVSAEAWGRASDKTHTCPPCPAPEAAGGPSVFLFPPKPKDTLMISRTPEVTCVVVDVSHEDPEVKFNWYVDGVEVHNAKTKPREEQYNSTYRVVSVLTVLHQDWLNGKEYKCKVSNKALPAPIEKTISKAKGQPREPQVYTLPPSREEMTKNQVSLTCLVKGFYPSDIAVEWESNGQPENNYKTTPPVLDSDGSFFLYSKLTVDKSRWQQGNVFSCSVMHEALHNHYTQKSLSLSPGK
light: B1 light 1 with Q146N, Q180N, Q191N
notes: as for B5
B8: T3-Design_6 (IgG1), normal orientation (antibody)
heavy: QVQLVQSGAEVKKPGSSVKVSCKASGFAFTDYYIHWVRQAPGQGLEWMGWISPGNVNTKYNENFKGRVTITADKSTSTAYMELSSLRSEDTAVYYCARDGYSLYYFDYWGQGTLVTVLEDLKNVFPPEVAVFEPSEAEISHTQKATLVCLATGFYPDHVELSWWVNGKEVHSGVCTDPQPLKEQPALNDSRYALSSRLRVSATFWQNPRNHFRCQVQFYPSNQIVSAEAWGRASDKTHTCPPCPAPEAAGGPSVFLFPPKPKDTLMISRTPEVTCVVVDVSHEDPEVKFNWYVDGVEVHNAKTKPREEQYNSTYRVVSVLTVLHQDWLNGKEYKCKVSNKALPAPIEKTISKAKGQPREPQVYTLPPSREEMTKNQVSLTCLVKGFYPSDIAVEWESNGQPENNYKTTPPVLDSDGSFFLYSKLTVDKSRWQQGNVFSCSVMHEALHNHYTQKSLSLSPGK
light: B1 light 1 with Q146N, Q180N, Q191N
notes: as for B5
B9: T3-Design_3 (IgG1), crossed orientation (antibody)
heavy: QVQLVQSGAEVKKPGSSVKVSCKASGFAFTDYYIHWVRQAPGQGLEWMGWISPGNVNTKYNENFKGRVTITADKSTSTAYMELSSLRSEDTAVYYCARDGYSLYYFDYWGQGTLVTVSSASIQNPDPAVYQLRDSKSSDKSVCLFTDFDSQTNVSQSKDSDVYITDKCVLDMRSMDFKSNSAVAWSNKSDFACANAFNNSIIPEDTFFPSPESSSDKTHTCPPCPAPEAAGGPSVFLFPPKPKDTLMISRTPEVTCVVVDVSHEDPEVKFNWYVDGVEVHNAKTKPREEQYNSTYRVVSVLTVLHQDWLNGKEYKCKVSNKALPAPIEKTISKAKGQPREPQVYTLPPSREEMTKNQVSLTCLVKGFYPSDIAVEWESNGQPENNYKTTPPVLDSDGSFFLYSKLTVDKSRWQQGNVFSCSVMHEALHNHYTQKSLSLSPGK
light: DIVMTQSPDSLAVSLGERATINCKSSQSLLNSRTRKNYLAWYQQKPGQPPKLLIYWASTRQSGVPDRFSGSGSGTDFTLTISSLQAEDVAVYYCTQSHTLRTFGGGTKVEIKLEDLKNVFPPEVAVFEPSEAEISHTQKATLVCLATGFYPDHVELSWWVNGKEVHSGVCTDPQPLKEQPALNDSRYALSSRLRVSATFWQNPRNHFRCQVQFYGLSENDEWTQDRAKPVTQIVSAEAWGRA
notes: as for B5
B10: T3-Design_4 (IgG1), crossed orientation (antibody)
heavy: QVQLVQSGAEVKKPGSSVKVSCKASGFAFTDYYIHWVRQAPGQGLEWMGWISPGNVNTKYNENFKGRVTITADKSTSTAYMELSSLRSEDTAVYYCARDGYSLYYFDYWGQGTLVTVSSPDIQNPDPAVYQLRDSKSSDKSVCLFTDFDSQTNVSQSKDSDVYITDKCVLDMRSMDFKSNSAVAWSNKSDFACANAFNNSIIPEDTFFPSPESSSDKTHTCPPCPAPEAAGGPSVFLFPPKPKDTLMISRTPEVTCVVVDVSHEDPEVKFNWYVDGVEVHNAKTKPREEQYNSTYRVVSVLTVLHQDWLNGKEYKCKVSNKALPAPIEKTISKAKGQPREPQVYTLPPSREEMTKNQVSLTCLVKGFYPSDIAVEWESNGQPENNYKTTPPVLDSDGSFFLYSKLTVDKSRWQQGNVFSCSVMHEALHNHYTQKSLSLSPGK
light: B9 light
notes: as for B5
B11: T3-Design_7 (IgG1), crossed orientation (antibody)
heavy: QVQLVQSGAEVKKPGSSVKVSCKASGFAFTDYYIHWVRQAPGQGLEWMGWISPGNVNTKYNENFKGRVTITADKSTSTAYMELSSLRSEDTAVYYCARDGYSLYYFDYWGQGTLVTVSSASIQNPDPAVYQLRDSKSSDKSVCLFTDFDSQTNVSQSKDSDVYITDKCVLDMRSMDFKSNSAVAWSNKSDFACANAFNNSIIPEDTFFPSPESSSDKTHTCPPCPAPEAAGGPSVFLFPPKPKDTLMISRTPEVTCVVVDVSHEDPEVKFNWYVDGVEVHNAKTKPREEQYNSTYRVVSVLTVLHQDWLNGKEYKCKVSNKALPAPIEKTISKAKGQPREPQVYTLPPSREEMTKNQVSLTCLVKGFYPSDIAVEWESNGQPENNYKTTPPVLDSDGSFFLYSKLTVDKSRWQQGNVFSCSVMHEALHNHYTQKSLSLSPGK
light: DIVMTQSPDSLAVSLGERATINCKSSQSLLNSRTRKNYLAWYQQKPGQPPKLLIYWASTRQSGVPDRFSGSGSGTDFTLTISSLQAEDVAVYYCTQSHTLRTFGGGTKVEIKLEDLKNVFPPEVAVFEPSEAEISHTQKATLVCLATGFYPDHVELSWWVNGKEVHSGVCTDPQPLKEQPALNDSRYALSSRLRVSATFWQNPRNHFRCQVQFYPSNQIVSAEAWGRA
notes: as for B5
B12: T3-Design_8 (IgG1), crossed orientation (antibody)
heavy: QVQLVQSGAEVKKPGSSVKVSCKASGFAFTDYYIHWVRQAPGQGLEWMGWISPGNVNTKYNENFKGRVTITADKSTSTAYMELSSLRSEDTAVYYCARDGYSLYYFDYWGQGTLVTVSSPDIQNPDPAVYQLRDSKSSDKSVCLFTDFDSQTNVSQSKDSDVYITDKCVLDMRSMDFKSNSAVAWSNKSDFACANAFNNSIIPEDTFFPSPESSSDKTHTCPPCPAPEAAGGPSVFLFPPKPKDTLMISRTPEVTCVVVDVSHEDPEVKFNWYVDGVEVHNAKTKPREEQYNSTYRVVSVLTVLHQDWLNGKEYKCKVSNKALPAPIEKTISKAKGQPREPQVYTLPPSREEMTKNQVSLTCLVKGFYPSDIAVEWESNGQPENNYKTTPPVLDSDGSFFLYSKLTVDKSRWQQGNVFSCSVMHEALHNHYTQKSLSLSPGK
light: B11 light
notes: as for B5
B13: T3-Design_2-QQQQ (IgG1) (antibody)
heavy: not shown
light: B1 light 1
notes: De-glycosylation mutant of Design_2; tested as supernatant
B14: T3-Design_2-ASKE (IgG1) (antibody)
heavy: not shown
light: B1 light 1 with Q146A, Q180S, Q191K
notes: as for B13
B15: T3-Design_2-QQQQQ (IgG1) (antibody)
heavy: not shown
light: B1 light 1 with N173Q
notes: as for B13
B16: T3-Design_2-AAAA (IgG1) (antibody)
heavy: not shown
light: B1 light 1 with Q146A, Q180A, Q191A
notes: as for B13
B17: T3-Design_2-QSKE (IgG1) (antibody)
heavy: not shown
light: B1 light 1 with Q180S, Q191K
notes: as for B13
B18: WBP316-BMK1.IgG4 (antibody, V domains shown)
VH: QVQLVESGGGVVQPGRSLRLSCAASGFTFSSYTMHWVRQAPGKGLEWVTFISYDGNNKYYADSVKGRFTISRDNSKNTLYLQMNSLRAEDTAIYYCARTGWLGPFDYWGQGTLVTVSS
VL: not shown
notes: also called WBP316-BMK1 (Ipilimumab)

target: T1, human CD19 on CD19+ B cell lines …; experiment: cell-based or functional assay

Binder	EC50 of T-cell directed killing of malignant B cells (PI-positive Raji cells) [nM]
B1	0.624

target: T2, human PD-1 on engineered CHO-S cells (W305-CHO-S.hPro1.C6) (human, UniProt Q15116 25-288); experiment: FACS on human PD-1 engineered cells
T2 construct: whole, on cells; also called human PD-1 engineered cells; PD-1+ cells
Description: Engineered human PD-1 expressing cells W305-CHO-S.hPro1.C6 were seeded at 1×10⁵ cells/well in U-bottom 96-well plates (COSTAR 3799). Antibodies with 3.16-fold titration in 1% BSA DPBS from 200 nM to 0.002 nM were added to the cells. The plates were incubated at 4° C. for 1 hour. After wash, […] 1:125 diluted PE-labeled goat anti-human antibody (Jackson 109-115-098) was added to each well and the plates were incubated at 4° C. for 1 hour. The binding of the antibodies onto the cells was tested by flow cytometry and the mean fluorescence intensity (MFI) was analyzed by FlowJo.

T2 sequence (Q15116 25-288, change not shown): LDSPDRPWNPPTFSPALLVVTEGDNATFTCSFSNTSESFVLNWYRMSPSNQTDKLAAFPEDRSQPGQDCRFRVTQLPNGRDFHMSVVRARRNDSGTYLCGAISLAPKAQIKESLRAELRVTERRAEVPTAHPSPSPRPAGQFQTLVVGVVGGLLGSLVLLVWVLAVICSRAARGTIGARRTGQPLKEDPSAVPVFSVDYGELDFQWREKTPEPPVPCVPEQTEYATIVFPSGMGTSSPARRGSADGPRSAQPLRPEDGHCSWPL

Binder	EC50 [nM]
B2	2.19
B3	7.93

target: T3, human CD3 on CD3+ Jurkat cells (human, UniProt P07766 23-207; P09693 23-182; P04234 22-171); experiment: FACS on CD3+ Jurkat cells, supernatant, 0.4 nM
T3 construct: whole, on cells; also called CD3 positive Jurkat cells
Description: (§1) To confirm whether the expressed proteins had correct folding and retained the original function, we tested their binding on CD3 positive Jurkat cells. FACS bindings of all the samples were carried out at three different concentrations: […].

T3 sequence (P07766 23-207, chain 1 of 3): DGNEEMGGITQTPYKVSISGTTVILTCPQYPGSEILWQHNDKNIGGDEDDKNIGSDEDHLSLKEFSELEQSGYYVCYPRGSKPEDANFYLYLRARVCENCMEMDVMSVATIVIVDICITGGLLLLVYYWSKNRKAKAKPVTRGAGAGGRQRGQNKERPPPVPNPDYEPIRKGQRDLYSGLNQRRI
T3 sequence (P09693 23-182, chain 2 of 3): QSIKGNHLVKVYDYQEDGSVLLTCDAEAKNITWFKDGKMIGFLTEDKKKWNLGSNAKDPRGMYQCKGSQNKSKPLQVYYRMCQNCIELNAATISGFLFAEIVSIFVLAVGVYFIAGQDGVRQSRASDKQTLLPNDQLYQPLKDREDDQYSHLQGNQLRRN
T3 sequence (P04234 22-171, chain 3 of 3): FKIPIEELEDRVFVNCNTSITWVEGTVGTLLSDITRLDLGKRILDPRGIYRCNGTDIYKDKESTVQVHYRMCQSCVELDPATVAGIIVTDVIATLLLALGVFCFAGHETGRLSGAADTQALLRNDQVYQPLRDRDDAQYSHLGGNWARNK

Binder	MFI at 0.4 nM [MFI]
B4	2190
B5	1860
B6	2820
B7	2620
B8	3910
B9	982
B10	1210
B11	1930
B12	1830

target: T3, human CD3 on CD3+ Jurkat cells; experiment: FACS on CD3+ Jurkat cells, supernatant, 5.0 nM
Description: as §1

Binder	MFI at 5.0 nM [MFI]
B4	5440
B5	5390
B6	5790
B7	5830
B8	5790
B9	5090
B10	5440
B11	6320
B12	6410

target: T3, human CD3 on CD3+ Jurkat cells; experiment: FACS on CD3+ Jurkat cells, supernatant, 0.032 nM
Description: as §1

Binder	MFI at 0.032 nM [MFI]
B4	292
B5	249
B6	405
B7	380
B8	613
B9	137
B10	168
B11	259
B12	243

target: T3, human CD3 on CD3+ Jurkat cells; experiment: FACS on CD3+ Jurkat cells, Expi293 supernatant

Binder	EC50 (read off the curve) [nM]
B13	~0.6
B14	~0.5
B15	~0.4
B16	~0.5
B17	~0.5

target: T4, cynomolgus CTLA-4 on engineered 293F cells (W316-293F.cynoPro1.F1.Pool) (cynomolgus); experiment: FACS binding to cynomolgus CTLA-4 engineered cells
T4 construct: whole, on cells; also called cynomolgus CTLA-4 engineered cells
Description: 4-fold titrated Abs with 1% BSA DPBS from 40 μg/ml to 0.00004 μg/ml were added to the cells. Plates were incubated at 4° C. for 1 hour. After wash, […] 1:150 diluted PE-labeled goat anti-human antibody (Jackson 109-115-098) was added to each well and the plates were incubated at 4° C. for 1 hour. The binding of the antibodies onto the cells was tested by flow cytometry and the mean fluorescence intensity (MFI) was analyzed by FlowJo.

Binder	EC50 [nM]	Top(MFI)
B18	0.674	8050
